Experimental findings from PMC4749977, “Alp7/TACC-Alp14/TOG generates long-lived, fast-growing MTs by an unconventional mechanism” (Scientific Reports, 2016) are described below.

Data set [1] addresses T1, Alp7-14 complex (full length Alp14 mixed with full length Alp7) (S. pombe, UniProt O94534 1-809; Q9URY2 1-474, biotin on the AviTag (BirA ligase co-expressed to ensure biotinylation)).
T1 construct: Alp14 of S. pombe, full length, as the chain of m1; Alp7 of S. pombe, full length, as the chain of m2; also called Alp7/TACC-Alp14/TOG; source: each from Sf9 insect cells (baculovirus), purified, then mixed
T1 sequence (looked up) 1: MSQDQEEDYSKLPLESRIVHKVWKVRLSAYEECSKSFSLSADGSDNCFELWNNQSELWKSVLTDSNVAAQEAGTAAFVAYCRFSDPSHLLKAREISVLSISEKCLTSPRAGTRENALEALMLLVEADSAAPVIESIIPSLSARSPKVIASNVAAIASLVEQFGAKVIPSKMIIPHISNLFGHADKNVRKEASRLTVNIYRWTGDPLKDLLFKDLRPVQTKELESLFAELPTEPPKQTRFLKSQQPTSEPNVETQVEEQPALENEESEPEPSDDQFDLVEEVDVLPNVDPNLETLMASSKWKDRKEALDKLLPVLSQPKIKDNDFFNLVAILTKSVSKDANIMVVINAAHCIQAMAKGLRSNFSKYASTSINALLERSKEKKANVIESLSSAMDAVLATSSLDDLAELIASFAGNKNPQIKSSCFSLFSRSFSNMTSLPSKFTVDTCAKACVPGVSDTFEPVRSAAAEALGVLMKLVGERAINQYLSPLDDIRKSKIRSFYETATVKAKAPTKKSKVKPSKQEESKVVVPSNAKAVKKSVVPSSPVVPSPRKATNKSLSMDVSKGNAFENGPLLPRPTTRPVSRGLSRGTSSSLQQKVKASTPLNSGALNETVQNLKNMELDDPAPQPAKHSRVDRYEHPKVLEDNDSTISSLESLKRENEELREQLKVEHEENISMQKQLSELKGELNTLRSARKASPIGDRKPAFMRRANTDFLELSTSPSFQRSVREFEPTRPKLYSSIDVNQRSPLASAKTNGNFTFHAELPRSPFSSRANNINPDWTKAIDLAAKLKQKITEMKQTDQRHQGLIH
T1 sequence (looked up) 2: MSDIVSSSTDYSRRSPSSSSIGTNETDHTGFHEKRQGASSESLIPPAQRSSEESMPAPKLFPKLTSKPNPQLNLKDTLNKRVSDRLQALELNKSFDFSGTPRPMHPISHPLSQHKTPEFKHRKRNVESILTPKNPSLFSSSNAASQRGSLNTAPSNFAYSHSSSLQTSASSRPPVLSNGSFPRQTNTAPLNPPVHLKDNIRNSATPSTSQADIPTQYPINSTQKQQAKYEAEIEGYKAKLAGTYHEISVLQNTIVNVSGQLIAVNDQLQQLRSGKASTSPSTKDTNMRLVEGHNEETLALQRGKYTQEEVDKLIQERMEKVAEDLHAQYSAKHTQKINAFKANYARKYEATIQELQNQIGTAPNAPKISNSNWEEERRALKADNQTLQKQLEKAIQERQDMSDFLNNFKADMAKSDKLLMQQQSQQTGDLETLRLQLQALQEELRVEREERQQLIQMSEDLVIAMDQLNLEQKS
Briefly: glycerol gradient centrifugation; 5-40% glycerol gradient of purified Alp14, Alp7 and tubulin, alone or mixed; tubulin as GTP-tubulin where stated; fractions on SDS-PAGE with Coomassie staining. Conditions: both partners purified.

Data set [2] deals with the molecule itself. As to the kind of experiment: DIC video microscopy of microtubule growth; addition of GTP-tubulin to plus and minus ends of MTs nucleated by axoneme fragments; growth rate against tubulin concentration, linear regression, apparent rate constants; 100 mM K-PIPES, 1 mM MgSO4, 2 mM EGTA, 1 mM DTT pH 6.9, 1 mM GTP, no glycerol, 25 °C.
Data set [3] concerns the target T2, Alp7 with Alp14-GFP (tip tracking Alp7-14 complexes) (S. pombe, UniProt O94534 1-809; Q9URY2 1-474, biotin on the AviTag (BirA ligase co-expressed to ensure biotinylation)).
T2 construct: Alp14 of S. pombe, as the chain of m9; Alp7 of S. pombe, full length, as the chain of m2; source: each from Sf9 insect cells (baculovirus), purified, added together to the assay
T2 sequence (looked up) 1: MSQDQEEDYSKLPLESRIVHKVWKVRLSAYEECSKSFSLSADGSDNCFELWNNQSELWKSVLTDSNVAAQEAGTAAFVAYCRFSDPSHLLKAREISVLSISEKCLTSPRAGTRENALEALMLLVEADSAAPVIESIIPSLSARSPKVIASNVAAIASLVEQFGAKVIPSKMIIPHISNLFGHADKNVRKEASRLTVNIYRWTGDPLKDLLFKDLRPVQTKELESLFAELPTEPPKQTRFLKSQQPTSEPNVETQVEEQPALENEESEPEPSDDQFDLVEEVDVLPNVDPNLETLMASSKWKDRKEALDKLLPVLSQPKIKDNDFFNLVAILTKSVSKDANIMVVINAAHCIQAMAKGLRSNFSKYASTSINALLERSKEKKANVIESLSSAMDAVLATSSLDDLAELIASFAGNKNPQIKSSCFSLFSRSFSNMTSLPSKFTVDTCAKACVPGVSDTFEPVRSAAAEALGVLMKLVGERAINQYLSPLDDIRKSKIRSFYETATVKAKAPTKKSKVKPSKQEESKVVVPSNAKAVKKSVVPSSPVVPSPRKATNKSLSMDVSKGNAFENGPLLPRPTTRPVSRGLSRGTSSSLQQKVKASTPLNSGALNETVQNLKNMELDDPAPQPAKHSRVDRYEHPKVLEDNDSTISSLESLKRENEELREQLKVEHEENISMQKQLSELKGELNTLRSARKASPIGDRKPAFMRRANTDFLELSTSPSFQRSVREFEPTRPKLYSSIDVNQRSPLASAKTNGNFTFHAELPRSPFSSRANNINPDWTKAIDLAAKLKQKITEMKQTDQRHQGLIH
T2 sequence (looked up) 2: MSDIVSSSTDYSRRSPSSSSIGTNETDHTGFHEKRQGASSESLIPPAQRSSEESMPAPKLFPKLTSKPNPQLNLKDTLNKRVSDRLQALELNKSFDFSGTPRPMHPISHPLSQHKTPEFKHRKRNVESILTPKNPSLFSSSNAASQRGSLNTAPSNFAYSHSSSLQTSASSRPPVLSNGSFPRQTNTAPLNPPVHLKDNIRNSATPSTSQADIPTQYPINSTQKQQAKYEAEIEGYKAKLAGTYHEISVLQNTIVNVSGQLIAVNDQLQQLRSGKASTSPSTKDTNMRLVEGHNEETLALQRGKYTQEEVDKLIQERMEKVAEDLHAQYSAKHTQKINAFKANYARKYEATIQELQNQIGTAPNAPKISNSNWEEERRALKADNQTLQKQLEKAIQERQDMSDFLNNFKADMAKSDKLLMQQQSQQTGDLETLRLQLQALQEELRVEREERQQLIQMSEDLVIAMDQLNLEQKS
As to the kind of experiment: TIRF microscopy of Alp14-GFP on dynamic microtubules; dual-TIRF; MTs nucleated by immobilized Alexa488 labeled seeds using 6 μM S. pombe tubulin doped with 2.5% (150 nM) rhodamine labeled brain tubulin; Alp14-GFP without or with Alp7. To be noted: both partners purified.

B1: S. pombe single isoform (α1β) tubulin (complex)
chain 1: MREVISVHVGQAGVQIGNACWELYCLEHGIGPDGFPTENSEVHKNNSYLNDGFGTFFSETGQGKFVPRSIYVDLEPNVIDQVRTGPYKDLFHPEQMVTGKEDASNNYARGHYTVGKEMIDSVLERIRRMADNCSGLQGFLVFHSFGGGTGSGLGALLLERLNMEYGKKSNLQFSVYPAPQVSTSVVEPYNSVLTTHATLDNSDCTFMVDNEACYDICRRNLDIERPTYENLNRLIAQVVSSITASLRFAGSLNVDLNEFQTNLVPYPRIHFPLVTYSPIVSAAKAFHESNSVQEITNQCFEPYNQMVKCDPRTGRYMATCLLYRGDVIPRDVQAAVTSIKSRRTIQFVDWCPTGFKIGICYEPPQHVPGSGIAKVNRAVCMLSNTTSIAEAWSRLDHKFDLMYSKRAFVHWYVGEGMEEGEFSEAREDLAALERDYEEVGQDSMDNEMYEADEEY
chain 2: MREIVHIQAGQCGNQVGAAFWSTIADEHGLDSAGIYHGTSEAQHERLNVYFNEAAGGKYVPRAVLVDLEPGTMDAVKSGKFGNLFRPDNIIYGQSGAGNIWAKGHYTEGAELADAVLDVVRREAEACDALQGFQLTHSLGGGTGSGMGTLLLSKIREEYPDRMMATFSVAPAPKSSDTVVEPYNATLSMHQLVENSDETFCIDNEALSSIFANTLKIKSPSYDDLNHLVSAVMAGVTTSFRFPGELNSDLRKLAVNMVPFPRLHFFMVGFAPLAAIGSSSFQAVSVPELTQQMFDANNMMVAADPRHGRYLTVAALFRGKVSMKEVDEQIRSVQTKNSAYFVEWIPDNVLKAVCSVPPKDLKMSATFIGNSTSIQEIFRRLGDQFSAMFRRKAFLHWYTGEGMDEMEFTEAESNMNDLVSEYQQYQEAGIDEGDEDYEIEEEKEPLEY
notes: alpha-1 tubulin of S. pombe, untagged, endogenous; beta tubulin of S. pombe, untagged, endogenous; Used as free heterodimer (GTP or GDP form) in the gradients and polymerised into dynamic microtubules in the microscopy assays; the assay's format tells which; also called single isoform S. pombe tubulin; S. pombe tubulin; source: purified from S. pombe single isoform strain (mmsp174): ion exchange, …
Take B1: the binding result in data set [1] was “binds”. Besides, in data set [2], the “Kd = koff/kon (critical concentration), minus end” value amounted to 900 nM and the “Kd = koff/kon (critical concentration), plus end” value came out at 1200 nM. For the same molecule, the binding result in data set [3] is listed as “binds”.
